What was measured:
H3K36me3 = assay: H3K36 demethylase activity of KDM4A variants in transfected cells (immunofluorescence); type: cell-based; set-up: key: + indicates active; − indicates inactive; +/− indicates partial acitivty; details: KDM4A mutations
Description: The indicated NHF-tagged KDM4A deletion constructs were transfected into RPE cells grown on coverslips in 10 cm dishes using X-tremeGENE 9™ DNA transfection reagent (Roche). H3K36me3 and subcellular localization were assayed by examining transfected cells (positive for HA staining; HA.11 Covance) following fixation in 3.7% PFA in PBS (Whetstine et al., 2006).
All immunofluorescence experiments were performed as in (Black et al., 2013). For the localization experiment a minimum of 50 cells were blinded and scored. For the catalytic activity, cells overexpressing a high level of KDM4A WT or SNP-A482 were analyzed in a non quantitative manner.

H3K9me3 = assay: H3K9 demethylase activity of KDM4 variants in transfected cells; type: cell-based; set-up: key: + indicates active; − indicates inactive; +/− indicates partial acitivty; details: KDM4A mutations

Molecule	H3k36 Demethylase Activity (H3K36me3)	H3k9 Demethylase Activity (H3K9me3)
2A-A236V: KDM4A mutation (protein) MASESETLNPSARIMTFYPTMEEFRNFSRYIAYIESQGAHRAGLAKVVPPKEWKPRASYDDIDDLVIPAPIQQLVTGQSGLFTQYNIQKKAMTVREFRKIANSDKYCTPRYSEFEELERKYWKNLTFNPPIYGADVNGTLYEKHVDEWNIGRLRTILDLVEKESGITIEGVNTPYLYFGMWKTSFAWHTEDMDLYSINYLHFGEPKSWYSVPPEHGKRLERLAKGFFPGSAQSCEVFLRHKMTLISPLMLKKYGIPFDKVTQEAGEFMITFPYGYHAGFNHGFNCAESTNFATRRWIEYGKQAVLCSCRKDMVKISMDVFVRKFQPERYKLWKAGKDNTVIDHTLPTPEAAEFLKESELPPRAGNEEECPEEDMEGVEDGEEGDLKTSLAKHRIGTKRHRVCLEIPQEVSQSELFPKEDLSSEQYEMTECPAALAPVRPTHSSVRQVEDGLTFPDYSDSTEVKFEELKNVKLEEEDEEEEQAAAALDLSVNPASVGGRLVFSGSKKKSSSSLGSGSSRDSISSDSETSEPLSCRAQGQTGVLTVHSYAKGDGRVTVGEPCTRKKGSAARSFSERELAEVADEYMFSLEENKKSKGRRQPLSKLPRHHPLVLQECVSDDETSEQLTPEEEAEETEAWAKPLSQLWQNRPPNFEAEKEFNETMAQQAPHCAVCMIFQTYHQVEFGGFNQNCGNASDLAPQKQRTKPLIPEMCFTSTGCSTDINLSTPYLEEDGTSILVSCKKCSVRVHASCYGVPPAKASEDWMCSRCSANALEEDCCLCSLRGGALQRANDDRWVHVSCAVAILEARFVNIAERSPVDVSKIPLPRFKLKCIFCKKRRKRTAGCCVQCSHGRCPTAFHVSCAQAAGVMMQPDDWPFVVFITCFRHKIPNLERAKGALQSITAGQKVISKHKNGRFYQCEVVRLTTETFYEVNFDDGSFSDNLYPEDIVSQDCLQFGPPAEGEVVQVRWTDGQVYGAKFVASHPIQMYQVEFEDGSQLVVKRDDVYTLDEELPKRVKSRLSVASDMRFNEIFTEKEVKQEKKRQRVINSRYREDYIEPALYRAIME	+	+
2A-R239H: KDM4A mutation (protein) MASESETLNPSARIMTFYPTMEEFRNFSRYIAYIESQGAHRAGLAKVVPPKEWKPRASYDDIDDLVIPAPIQQLVTGQSGLFTQYNIQKKAMTVREFRKIANSDKYCTPRYSEFEELERKYWKNLTFNPPIYGADVNGTLYEKHVDEWNIGRLRTILDLVEKESGITIEGVNTPYLYFGMWKTSFAWHTEDMDLYSINYLHFGEPKSWYSVPPEHGKRLERLAKGFFPGSAQSCEAFLHHKMTLISPLMLKKYGIPFDKVTQEAGEFMITFPYGYHAGFNHGFNCAESTNFATRRWIEYGKQAVLCSCRKDMVKISMDVFVRKFQPERYKLWKAGKDNTVIDHTLPTPEAAEFLKESELPPRAGNEEECPEEDMEGVEDGEEGDLKTSLAKHRIGTKRHRVCLEIPQEVSQSELFPKEDLSSEQYEMTECPAALAPVRPTHSSVRQVEDGLTFPDYSDSTEVKFEELKNVKLEEEDEEEEQAAAALDLSVNPASVGGRLVFSGSKKKSSSSLGSGSSRDSISSDSETSEPLSCRAQGQTGVLTVHSYAKGDGRVTVGEPCTRKKGSAARSFSERELAEVADEYMFSLEENKKSKGRRQPLSKLPRHHPLVLQECVSDDETSEQLTPEEEAEETEAWAKPLSQLWQNRPPNFEAEKEFNETMAQQAPHCAVCMIFQTYHQVEFGGFNQNCGNASDLAPQKQRTKPLIPEMCFTSTGCSTDINLSTPYLEEDGTSILVSCKKCSVRVHASCYGVPPAKASEDWMCSRCSANALEEDCCLCSLRGGALQRANDDRWVHVSCAVAILEARFVNIAERSPVDVSKIPLPRFKLKCIFCKKRRKRTAGCCVQCSHGRCPTAFHVSCAQAAGVMMQPDDWPFVVFITCFRHKIPNLERAKGALQSITAGQKVISKHKNGRFYQCEVVRLTTETFYEVNFDDGSFSDNLYPEDIVSQDCLQFGPPAEGEVVQVRWTDGQVYGAKFVASHPIQMYQVEFEDGSQLVVKRDDVYTLDEELPKRVKSRLSVASDMRFNEIFTEKEVKQEKKRQRVINSRYREDYIEPALYRAIME	+/−	+/−
2A-T289I: KDM4A mutation (protein) MASESETLNPSARIMTFYPTMEEFRNFSRYIAYIESQGAHRAGLAKVVPPKEWKPRASYDDIDDLVIPAPIQQLVTGQSGLFTQYNIQKKAMTVREFRKIANSDKYCTPRYSEFEELERKYWKNLTFNPPIYGADVNGTLYEKHVDEWNIGRLRTILDLVEKESGITIEGVNTPYLYFGMWKTSFAWHTEDMDLYSINYLHFGEPKSWYSVPPEHGKRLERLAKGFFPGSAQSCEAFLRHKMTLISPLMLKKYGIPFDKVTQEAGEFMITFPYGYHAGFNHGFNCAESINFATRRWIEYGKQAVLCSCRKDMVKISMDVFVRKFQPERYKLWKAGKDNTVIDHTLPTPEAAEFLKESELPPRAGNEEECPEEDMEGVEDGEEGDLKTSLAKHRIGTKRHRVCLEIPQEVSQSELFPKEDLSSEQYEMTECPAALAPVRPTHSSVRQVEDGLTFPDYSDSTEVKFEELKNVKLEEEDEEEEQAAAALDLSVNPASVGGRLVFSGSKKKSSSSLGSGSSRDSISSDSETSEPLSCRAQGQTGVLTVHSYAKGDGRVTVGEPCTRKKGSAARSFSERELAEVADEYMFSLEENKKSKGRRQPLSKLPRHHPLVLQECVSDDETSEQLTPEEEAEETEAWAKPLSQLWQNRPPNFEAEKEFNETMAQQAPHCAVCMIFQTYHQVEFGGFNQNCGNASDLAPQKQRTKPLIPEMCFTSTGCSTDINLSTPYLEEDGTSILVSCKKCSVRVHASCYGVPPAKASEDWMCSRCSANALEEDCCLCSLRGGALQRANDDRWVHVSCAVAILEARFVNIAERSPVDVSKIPLPRFKLKCIFCKKRRKRTAGCCVQCSHGRCPTAFHVSCAQAAGVMMQPDDWPFVVFITCFRHKIPNLERAKGALQSITAGQKVISKHKNGRFYQCEVVRLTTETFYEVNFDDGSFSDNLYPEDIVSQDCLQFGPPAEGEVVQVRWTDGQVYGAKFVASHPIQMYQVEFEDGSQLVVKRDDVYTLDEELPKRVKSRLSVASDMRFNEIFTEKEVKQEKKRQRVINSRYREDYIEPALYRAIME	−	+/−
2A-V319M: KDM4A mutation (protein) MASESETLNPSARIMTFYPTMEEFRNFSRYIAYIESQGAHRAGLAKVVPPKEWKPRASYDDIDDLVIPAPIQQLVTGQSGLFTQYNIQKKAMTVREFRKIANSDKYCTPRYSEFEELERKYWKNLTFNPPIYGADVNGTLYEKHVDEWNIGRLRTILDLVEKESGITIEGVNTPYLYFGMWKTSFAWHTEDMDLYSINYLHFGEPKSWYSVPPEHGKRLERLAKGFFPGSAQSCEAFLRHKMTLISPLMLKKYGIPFDKVTQEAGEFMITFPYGYHAGFNHGFNCAESTNFATRRWIEYGKQAVLCSCRKDMVKISMDMFVRKFQPERYKLWKAGKDNTVIDHTLPTPEAAEFLKESELPPRAGNEEECPEEDMEGVEDGEEGDLKTSLAKHRIGTKRHRVCLEIPQEVSQSELFPKEDLSSEQYEMTECPAALAPVRPTHSSVRQVEDGLTFPDYSDSTEVKFEELKNVKLEEEDEEEEQAAAALDLSVNPASVGGRLVFSGSKKKSSSSLGSGSSRDSISSDSETSEPLSCRAQGQTGVLTVHSYAKGDGRVTVGEPCTRKKGSAARSFSERELAEVADEYMFSLEENKKSKGRRQPLSKLPRHHPLVLQECVSDDETSEQLTPEEEAEETEAWAKPLSQLWQNRPPNFEAEKEFNETMAQQAPHCAVCMIFQTYHQVEFGGFNQNCGNASDLAPQKQRTKPLIPEMCFTSTGCSTDINLSTPYLEEDGTSILVSCKKCSVRVHASCYGVPPAKASEDWMCSRCSANALEEDCCLCSLRGGALQRANDDRWVHVSCAVAILEARFVNIAERSPVDVSKIPLPRFKLKCIFCKKRRKRTAGCCVQCSHGRCPTAFHVSCAQAAGVMMQPDDWPFVVFITCFRHKIPNLERAKGALQSITAGQKVISKHKNGRFYQCEVVRLTTETFYEVNFDDGSFSDNLYPEDIVSQDCLQFGPPAEGEVVQVRWTDGQVYGAKFVASHPIQMYQVEFEDGSQLVVKRDDVYTLDEELPKRVKSRLSVASDMRFNEIFTEKEVKQEKKRQRVINSRYREDYIEPALYRAIME	+	+
2A-G278S: KDM4A mutation (protein) MASESETLNPSARIMTFYPTMEEFRNFSRYIAYIESQGAHRAGLAKVVPPKEWKPRASYDDIDDLVIPAPIQQLVTGQSGLFTQYNIQKKAMTVREFRKIANSDKYCTPRYSEFEELERKYWKNLTFNPPIYGADVNGTLYEKHVDEWNIGRLRTILDLVEKESGITIEGVNTPYLYFGMWKTSFAWHTEDMDLYSINYLHFGEPKSWYSVPPEHGKRLERLAKGFFPGSAQSCEAFLRHKMTLISPLMLKKYGIPFDKVTQEAGEFMITFPYGYHASFNHGFNCAESTNFATRRWIEYGKQAVLCSCRKDMVKISMDVFVRKFQPERYKLWKAGKDNTVIDHTLPTPEAAEFLKESELPPRAGNEEECPEEDMEGVEDGEEGDLKTSLAKHRIGTKRHRVCLEIPQEVSQSELFPKEDLSSEQYEMTECPAALAPVRPTHSSVRQVEDGLTFPDYSDSTEVKFEELKNVKLEEEDEEEEQAAAALDLSVNPASVGGRLVFSGSKKKSSSSLGSGSSRDSISSDSETSEPLSCRAQGQTGVLTVHSYAKGDGRVTVGEPCTRKKGSAARSFSERELAEVADEYMFSLEENKKSKGRRQPLSKLPRHHPLVLQECVSDDETSEQLTPEEEAEETEAWAKPLSQLWQNRPPNFEAEKEFNETMAQQAPHCAVCMIFQTYHQVEFGGFNQNCGNASDLAPQKQRTKPLIPEMCFTSTGCSTDINLSTPYLEEDGTSILVSCKKCSVRVHASCYGVPPAKASEDWMCSRCSANALEEDCCLCSLRGGALQRANDDRWVHVSCAVAILEARFVNIAERSPVDVSKIPLPRFKLKCIFCKKRRKRTAGCCVQCSHGRCPTAFHVSCAQAAGVMMQPDDWPFVVFITCFRHKIPNLERAKGALQSITAGQKVISKHKNGRFYQCEVVRLTTETFYEVNFDDGSFSDNLYPEDIVSQDCLQFGPPAEGEVVQVRWTDGQVYGAKFVASHPIQMYQVEFEDGSQLVVKRDDVYTLDEELPKRVKSRLSVASDMRFNEIFTEKEVKQEKKRQRVINSRYREDYIEPALYRAIME	−	−

Source: US20160113911A1, “METHODS AND COMPOSITIONS FOR THE TREATMENT OF CANCER” (THE GENERAL HOSPITAL CORPORATION, priority 2013, published 2016)
